Biological target: T1, humanized FGFR3c (hR3c)-expressing BaF3 cells (Homo sapiens, UniProt P22607, A441S/A461E/A470D/A499P/A500N/A559S/A717S/A734V/A765M/C582S/D512S/D516E/D576E/D580N/D722E/D758Q/D785E/DEL405-414/E426D/E447G/E729D/E768D/F566Y/F579Y/F591S/F767L/G446S/G448T/G548D/G773S/G774F/H721N/I440P/I494L/I698V/I726M/INS417HSQMAVHKLAKSI/INS423TV/INS780T/K420R/K464R/K501R/K583H/L398M/L425A/L457Y/L554I/L645I/L752V/M488L/N428S/N434G/N453G/N644H/P401G/P402T/P436L/P502V/P584N/P778R/Q611K/Q775P/R397K/R399K/R416D/R498K/R568Q/S432N/S468P/S578C/S781C/T435V/T450M/T473V/T504K/T581P/T590S/T753A/T757N/V503T/V523I/V642I/V670I/V751I/V754L)
T1 construct: expressed in transfected cells; host or cells: BaF3 (mouse pro-B) cells; pSRalpha vector
T1 sequence (P22607 other isoform, or with tags, fused parts or gaps with the stated changes): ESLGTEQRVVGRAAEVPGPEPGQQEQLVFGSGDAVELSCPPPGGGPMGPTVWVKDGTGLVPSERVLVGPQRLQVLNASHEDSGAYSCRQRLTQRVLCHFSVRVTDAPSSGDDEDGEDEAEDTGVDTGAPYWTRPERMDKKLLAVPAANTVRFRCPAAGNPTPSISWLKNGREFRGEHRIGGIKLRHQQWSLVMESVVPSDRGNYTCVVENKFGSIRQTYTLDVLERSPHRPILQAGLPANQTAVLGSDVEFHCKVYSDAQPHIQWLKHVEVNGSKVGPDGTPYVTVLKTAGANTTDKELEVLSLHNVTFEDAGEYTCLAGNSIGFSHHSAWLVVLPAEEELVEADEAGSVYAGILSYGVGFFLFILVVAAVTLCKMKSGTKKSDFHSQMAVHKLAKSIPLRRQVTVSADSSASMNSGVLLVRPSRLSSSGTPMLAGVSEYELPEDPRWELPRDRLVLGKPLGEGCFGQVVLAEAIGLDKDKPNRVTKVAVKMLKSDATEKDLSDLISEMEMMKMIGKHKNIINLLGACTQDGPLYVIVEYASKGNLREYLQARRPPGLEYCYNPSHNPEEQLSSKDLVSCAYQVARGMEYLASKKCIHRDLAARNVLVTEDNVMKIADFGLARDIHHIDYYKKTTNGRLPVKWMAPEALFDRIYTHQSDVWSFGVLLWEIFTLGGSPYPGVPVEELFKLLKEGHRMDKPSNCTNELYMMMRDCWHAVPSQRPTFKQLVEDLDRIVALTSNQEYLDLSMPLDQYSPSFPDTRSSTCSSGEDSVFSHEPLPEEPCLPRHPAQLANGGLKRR
Test: DNA synthesis in humanized FGFR3c-expressing BaF3 cells
Assay type: cell-based
Settings: humanized FGFR3c only; 10 μg/ml heparin
Experimental: The homology between human FGFR3 and mouse FGFR3 at the amino acid sequence level is 93%. […] The cDNA of humanized FGFR3c was prepared from a commercially available human RNA sample (Takara Bio Inc.) by PCR. The sequence of its intracellular portion was substituted with the sequence of humanized FGFR1, and it was then introduced into an expression vector having an SRalpha promoter (pSRalpha). The FGFR3c expression vector was introduced into BaF3 cells by an electroporation method, so as to obtain FGFR3c-expressing BaF3 cells as G418-resistant clones. In the case of FGFR3c/betaKlotho-co-expressing cells, a betaKlotho expression vector was introduced into the FGFR3c-expressing BaF3 cells, so as to obtain the aforementioned cells as Puromycin-resistant clones. In the presence of heparin, humanized FGF21 was added in various types of concentrations to FGFR3c-expressing cells or FGFR3c/betaKlotho-co-expressing cells, and the amount of DNA synthesized was then measured.

For “FGF1: conventional FGF used as a control”, the “amount of DNA synthesized (thymidine incorporation)” value was “promoted the DNA synthesis”.
